Measured values as given in patent US20240034764A1.

Molecular target: IL-10Rα receptor on MC/9 mouse mast cells (mouse) (UniProt Q61727)
Test: cell-based or functional assay

Sequence of UniProt Q61727 (Q61727 17-575): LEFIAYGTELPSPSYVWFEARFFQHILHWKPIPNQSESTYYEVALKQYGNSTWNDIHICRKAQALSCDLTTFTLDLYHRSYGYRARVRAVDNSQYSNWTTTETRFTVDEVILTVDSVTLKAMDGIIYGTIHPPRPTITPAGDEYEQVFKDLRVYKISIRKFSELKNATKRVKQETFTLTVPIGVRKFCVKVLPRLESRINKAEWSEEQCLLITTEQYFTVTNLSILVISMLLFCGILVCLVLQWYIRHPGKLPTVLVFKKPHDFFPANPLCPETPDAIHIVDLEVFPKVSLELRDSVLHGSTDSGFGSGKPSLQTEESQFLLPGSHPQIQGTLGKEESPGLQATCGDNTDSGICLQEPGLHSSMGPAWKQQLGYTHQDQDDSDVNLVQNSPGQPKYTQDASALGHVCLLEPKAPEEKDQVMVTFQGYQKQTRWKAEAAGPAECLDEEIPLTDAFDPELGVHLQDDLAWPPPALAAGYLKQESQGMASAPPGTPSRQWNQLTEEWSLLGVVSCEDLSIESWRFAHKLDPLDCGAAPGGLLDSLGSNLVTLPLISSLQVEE

half maximal effective concentration (EC50), proliferation of MC/9 cells in the presence of IL4 (Alamar Blue): 91.7 pM
Substance: recombinant human IL-10 (Peprotech catalog number 200-10) (from UniProt P22301 19-178) (ligand)
